The target in this test is F-actin (rabbit muscle actin, filaments) (rabbit, UniProt P68135 1-377). Kind of test: co-sedimentation.

B1: IRSp53/IMD (IRSp53/MIM domain of human IRSp53) (domain or fragment)
chain: MSLSRSEEMHRLTENVYKTIMEQFNPSLRNFIAMGKNYEKALAGVTYAAKGYFDALVKMGELASESQGSKELGDVLFQMAEVHRQIQNQLEEMLKSFHNELLTQLEQKVELDSRYLSAALKKYQTEQRSKGDALDKCQAELKKLRKKSQGSKNPQKYSDKELQYIDAISNKQGELENYVSDGYKTALTEERRRFCFLVEKQCAVAKNSAAYHSKGKELLAQKLPLWQQACADPSKIPERAVQLMQQVASN
In the case of B1, the binding result is “binds”.

Values taken from PMC2064081 (The Journal of Cell Biology, 2007).
